Results published in the Immune Epitope Database (IEDB).
Blank lines part the entries; values can stand above or below the sequence they belong to.

Assays:
[1] = target: HLA-A*11:01; assay: IEDB peptide-MHC binding, purified MHC/competitive/radioactivity; filed as Kd, often an IC50 or EC50 that approximates it; ≥ and ≤ were set here for values at or beyond the usual limits of such assays
[2] = target: HLA-A*02:01; assay: as above
[3] = target: HLA-A*03:01; assay: as above
[4] = target: HLA-A*33:01; assay: as above
[5] = target: HLA-A*68:02; assay: as above
[6] = target: HLA-A*02:03; assay: as above
[7] = target: HLA-B*07:02; assay: as above
[8] = target: HLA-A*02:02; assay: as above
[9] = target: HLA-A*68:01; assay: as above
[10] = target: HLA-A*02:06; assay: as above
[11] = target: HLA-B*51:01; assay: as above
[12] = target: HLA-B*35:01; assay: as above
[13] = target: HLA-B*53:01; assay: as above
[14] = target: HLA-B*54:01; assay: as above
[15] = target: HLA-A*31:01; assay: as above
[16] = target: HLA-A*02:01; assay: IEDB peptide-MHC binding, purified MHC/direct/fluorescence; filed as Kd, often an IC50 or EC50 that approximates it; ≥ and ≤ were set here for values at or beyond the usual limits of such assays; details: source organism: SARS-CoV1
[17] = target: HLA-A*69:01; assay: as above; details: source organism: SARS-CoV1
[18] = target: HLA-B*07:02; assay: as above; details: source organism: SARS-CoV1
[19] = target: HLA-B*44:02; assay: IEDB peptide-MHC binding, purified MHC/competitive/radioactivity; filed as Kd, often an IC50 or EC50 that approximates it; ≥ and ≤ were set here for values at or beyond the usual limits of such assays; details: source organism: Hepatitis C virus (isolate 1)
[20] = target: HLA-B*08:01; assay: as above; details: source organism: Hepatitis C virus (isolate 1)
[21] = target: HLA-B*44:03; assay: as above; details: source organism: Hepatitis C virus (isolate 1)
[22] = target: HLA-B*40:02; assay: as above; details: source organism: Hepatitis C virus (isolate 1)
[23] = target: HLA-B*18:01; assay: as above; details: source organism: Hepatitis C virus (isolate 1)
[24] = target: HLA-B*40:01; assay: as above; details: source organism: Hepatitis C virus (isolate 1)
[25] = source organism: Vaccinia virus WR
[26] = source organism: SARS coronavirus Tor2
[27] = source organism: Mammarenavirus guanaritoense
[28] = source organism: Triticum aestivum
[29] = source organism: Hepatitis C virus (isolate 1)

Sequence: ISIIVLFQR
Kd [1, 25]: 0.93 µM
Kd [2, 25]: 2.4 µM
Kd [3, 25]: 0.689 µM
Kd [4, 25]: 0.252 µM
Kd [5, 25]: 8.93 µM
Kd [6, 25]: 9.05 µM
Kd [7, 25]: 2.22 µM
Kd [8, 25]: 6.72 µM
Kd [9, 25]: 0.00326 µM
Kd [10, 25]: 9.07 µM
Kd [11, 25]: ≥ 21 µM
Kd [12, 25]: ≥ 43.4 µM
Kd [13, 25]: ≥ 21.5 µM
Kd [14, 25]: 7.68 µM
Kd [15, 25]: 0.00112 µM

Sequence: APHGVVFLHV
Kd [7, 26]: 0.254 µM
Kd [11, 26]: 7.81 µM
Kd [12, 26]: 4.36 µM
Kd [13, 26]: 0.749 µM
Kd [14, 26]: 0.288 µM

Sequence: FPGLYGASI
Kd [7, 25]: 0.0809 µM
Kd [11, 25]: 0.137 µM
Kd [12, 25]: 0.506 µM
Kd [13, 25]: 0.0092 µM
Kd [14, 25]: 0.0184 µM

Sequence: KPPISFPLCA
Kd [7, 26]: 17.2 µM
Kd [11, 26]: 9.52 µM
Kd [12, 26]: ≥ 42.5 µM
Kd [13, 26]: ≥ 31.5 µM
Kd [14, 26]: 3.87 µM

Sequence: IPYLRNYMVI
Kd [1, 25]: 1.02 µM
Kd [2, 25]: ≥ 69.4 µM
Kd [3, 25]: 0.158 µM
Kd [4, 25]: 15.5 µM
Kd [5, 25]: 15.5 µM
Kd [6, 25]: ≥ 70.4 µM
Kd [7, 25]: 0.323 µM
Kd [8, 25]: ≥ 70 µM
Kd [9, 25]: ≥ 21.4 µM
Kd [10, 25]: ≥ 69.8 µM
Kd [11, 25]: ≥ 25 µM
Kd [12, 25]: ≥ 43.9 µM
Kd [13, 25]: 0.895 µM
Kd [14, 25]: 0.829 µM
Kd [15, 25]: ≥ 37 µM

Sequence: KPNTWCLRCL
Kd [7, 26]: 0.339 µM
Kd [11, 26]: ≥ 69.6 µM
Kd [12, 26]: ≥ 69.9 µM
Kd [13, 26]: 2.44 µM
Kd [14, 26]: ≥ 31.1 µM

Sequence: LPNTLVFQA
Kd [7, 27]: ≥ 38.3 µM
Kd [11, 27]: 4.4 µM
Kd [12, 27]: 0.0828 µM
Kd [13, 27]: 1.02 µM
Kd [14, 27]: 0.00814 µM

Kd [7, 28]: ≥ 69.6 µM
Kd [11, 28]: 10.4 µM
Kd [12, 28]: 0.048 µM
Kd [13, 28]: 1.62 µM
Kd [14, 28]: ≥ 69.9 µM
Sequence: QPYPQPQPQY

Sequence: EPISILDRI
Kd [7, 25]: ≥ 28.8 µM
Kd [11, 25]: 0.0373 µM
Kd [12, 25]: 4.81 µM
Kd [13, 25]: 0.194 µM
Kd [14, 25]: 0.82 µM

Sequence: MPASWVMRI
Kd [16]: 8.19 µM
Kd [17]: 0.017 µM
Kd [18]: 0.508 µM
Kd [11, 26]: 0.0671 µM
Kd [12, 26]: 0.206 µM
Kd [13, 26]: 0.00124 µM
Kd [14, 26]: 0.032 µM

Sequence: ATDALMTGY
Kd [1, 29]: 0.0196 µM
Kd [19]: ≥ 78 µM
Kd [20]: ≥ 64.7 µM
Kd [2, 29]: 1.45 µM
Kd [3, 29]: 3.32 µM
Kd [4, 29]: ≥ 77.7 µM
Kd [21]: ≥ 78.2 µM
Kd [5, 29]: ≥ 69.8 µM
Kd [22]: ≥ 77.3 µM
Kd [6, 29]: 5.92 µM
Kd [23]: ≥ 77.5 µM
Kd [7, 29]: ≥ 32.9 µM
Kd [24]: ≥ 76.2 µM
Kd [8, 29]: 1.58 µM
Kd [9, 29]: ≥ 77.7 µM
Kd [10, 29]: 5.65 µM
Kd [11, 29]: ≥ 77.5 µM
Kd [12, 29]: ≥ 36.4 µM
Kd [13, 29]: ≥ 78.2 µM
Kd [14, 29]: ≥ 63.1 µM
Kd [15, 29]: ≥ 72.3 µM
